Experimental data reported in article doi:10.1101/2024.04.18.590116 (bioRxiv, 2024).

Target: T1, 6xHis-MPK3 (rice, UniProt Q10N20 1-369)
T1 sequence (looked up): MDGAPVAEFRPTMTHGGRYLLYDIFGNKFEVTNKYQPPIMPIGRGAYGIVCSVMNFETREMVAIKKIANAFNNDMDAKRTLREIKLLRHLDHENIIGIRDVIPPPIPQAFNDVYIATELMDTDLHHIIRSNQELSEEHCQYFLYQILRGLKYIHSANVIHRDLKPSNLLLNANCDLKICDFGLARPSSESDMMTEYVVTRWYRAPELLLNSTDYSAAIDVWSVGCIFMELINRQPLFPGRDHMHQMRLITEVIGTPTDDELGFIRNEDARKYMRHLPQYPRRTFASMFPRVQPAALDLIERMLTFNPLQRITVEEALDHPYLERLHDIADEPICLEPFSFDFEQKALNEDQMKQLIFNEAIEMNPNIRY
Assay: pull-down

binding result: binds
B1: GST-KRP3 (natural protein, rice (Oryza sativa), UniProt Q2R185 1-225, looked up)
chain: MGKYLRSSCKQQQQPSSPAAVASVAAAAVSSYSYLTLRSGRRVPAAAAAAGGSACRRRHRRGGRRGCAKNGAGSARACGARSPTSSASSGQRRRCEAVECSHGGGRAELSRSPPLGNSVVVVSGDVVSGERKSLKPNSCSREVAAEHAGEHKHNPAAAAAAGRRPPLSPPEAEIEAFFAAAELAERRRFAEKYNYDIALDRPLQGRYEWEPTVPNFDVAKDVTDM
